US20140087995A1 (published 2014)
Numbered stars: 1 amine (or outer) side, 2 acyl side, 3 side chain; on linkers, the order of the positions; unused ones are H or OH. Bridge positions count the residues as written; N and C are the ends. Square brackets hold non-standard residues; d marks the D form. Side chains are listed from the residue outwards. Ends that are not written are not given here. * marks the point of attachment. C20 diacid = O=C(O)CCCCCCCCCCCCCCCCCCC(=O)*; γGlu = O=C(O)[C@H](CCC(=O)[*:2])N[*:1]; C14 diacid = O=C(O)CCCCCCCCCCCCC(=O)*

T1: rat calcitonin receptor (rat, UniProt P32214 25-516)
T1 construct: whole, on cells; Used as membranes prepared from the transfected cells (Assay VIII); also called rCTR; rat calcitonin (a) receptor
T1 sequence (looked up): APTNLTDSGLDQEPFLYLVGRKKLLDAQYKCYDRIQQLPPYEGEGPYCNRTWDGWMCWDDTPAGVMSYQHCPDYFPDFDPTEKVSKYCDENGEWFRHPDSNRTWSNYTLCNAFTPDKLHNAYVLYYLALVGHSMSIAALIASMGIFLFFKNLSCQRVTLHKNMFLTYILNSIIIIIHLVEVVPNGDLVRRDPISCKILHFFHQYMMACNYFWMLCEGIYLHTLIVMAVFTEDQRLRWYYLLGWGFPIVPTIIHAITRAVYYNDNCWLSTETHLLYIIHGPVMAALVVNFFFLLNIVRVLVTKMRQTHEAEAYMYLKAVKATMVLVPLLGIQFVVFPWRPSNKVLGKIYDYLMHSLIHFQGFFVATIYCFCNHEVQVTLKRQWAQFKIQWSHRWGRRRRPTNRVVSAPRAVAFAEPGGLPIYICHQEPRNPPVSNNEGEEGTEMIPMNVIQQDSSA

T2: human calcitonin receptor (human, UniProt P30988 25-474)
T2 construct: whole, on cells; Used as membranes prepared from the transfected cells (Assay VII); also called hCTR; hCT
T2 sequence (looked up): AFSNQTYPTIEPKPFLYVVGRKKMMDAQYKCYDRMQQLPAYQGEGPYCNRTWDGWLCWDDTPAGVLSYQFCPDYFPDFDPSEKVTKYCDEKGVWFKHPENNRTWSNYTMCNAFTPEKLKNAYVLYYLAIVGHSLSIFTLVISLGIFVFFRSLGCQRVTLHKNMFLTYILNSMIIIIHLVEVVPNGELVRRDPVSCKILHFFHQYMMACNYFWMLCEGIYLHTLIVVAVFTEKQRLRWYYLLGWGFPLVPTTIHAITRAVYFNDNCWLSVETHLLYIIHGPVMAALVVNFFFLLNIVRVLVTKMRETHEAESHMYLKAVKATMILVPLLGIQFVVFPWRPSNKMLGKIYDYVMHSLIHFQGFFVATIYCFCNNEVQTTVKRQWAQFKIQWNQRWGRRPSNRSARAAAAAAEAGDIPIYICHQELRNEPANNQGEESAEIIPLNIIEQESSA

T3: rat amylin receptor (rat calcitonin receptor + rat RAMP 3) (rat, UniProt P32214 25-516; Q9JJ73 23-147)
T3 construct: whole, on cells; Used as membranes prepared from the transfected cells (Assay VI); also called rAmylin-R; rat amylin 3(a) receptor
T3 sequence (looked up) 1: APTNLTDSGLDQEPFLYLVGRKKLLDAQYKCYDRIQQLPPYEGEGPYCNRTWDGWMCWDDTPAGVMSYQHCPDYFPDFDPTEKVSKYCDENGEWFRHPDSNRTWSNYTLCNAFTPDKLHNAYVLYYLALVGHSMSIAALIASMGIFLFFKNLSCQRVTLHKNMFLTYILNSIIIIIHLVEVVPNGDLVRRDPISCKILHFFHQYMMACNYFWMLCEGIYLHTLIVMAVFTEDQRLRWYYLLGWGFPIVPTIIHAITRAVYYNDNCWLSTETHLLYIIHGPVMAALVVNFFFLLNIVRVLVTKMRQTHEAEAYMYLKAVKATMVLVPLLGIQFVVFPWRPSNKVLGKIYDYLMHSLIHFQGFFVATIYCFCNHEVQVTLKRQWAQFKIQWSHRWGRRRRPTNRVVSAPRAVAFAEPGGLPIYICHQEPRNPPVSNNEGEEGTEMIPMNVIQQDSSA
T3 sequence (looked up) 2: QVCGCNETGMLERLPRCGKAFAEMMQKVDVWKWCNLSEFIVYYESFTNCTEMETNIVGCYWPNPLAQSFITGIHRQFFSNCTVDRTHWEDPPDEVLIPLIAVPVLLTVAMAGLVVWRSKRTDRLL


Key:
rat calcitonin receptor [1] = biological target: T1, rat calcitonin receptor; assay: ratio of IC50 on rat calcitonin receptor (Assay VIII) to IC50 on rat amylin receptor (Assay VI)
[2] = biological target: T2, human calcitonin receptor; assay: ratio of IC50 on human calcitonin receptor (Assay VII) to IC50 on human amylin receptor (Assay V)
Procedure: The resulting pellet was resuspended, homogenized and centrifuged (20.000 rpm, 15 min) in a buffer containing 20 mM Na-HEPES and 0.1 mM EDTA (pH 7.4, buffer 2). The resulting pellet was resuspended in buffer 2 and protein concentration was measured (BCA protein Assay, Pierce). The homogenate was kept cold during the whole procedure. The membranes were kept at −80° C. until use. The assay was performed in a 384 well Optiplate (PerkinElmer) in a total volume of 40 ul. Membranes were mixed with SPA beads. Final concentration of membranes 35 ng/μL final and SPA beads was 0.05 mg/well. Test-compounds were dissolved in DMSO and further diluted in assay buffer (50 mM Hepes, pH 7.4, 1 mM CaCl2, 5 mM MgCl₂, 0.1% OA and 0.02% Tween20). […] The final mixture was incubated with shaking at 400 rpm for 120 min at 25° C. prior to centrifugation (1500 rpm, 10 min). Samples were analyzed on TopCounter™ (Packard). The IC₅₀ was calculated using (one site binding competition analysis) GraphPad Prism5 as a measure of receptor affinity.
Membranes were prepared in the following way; the cells were rinsed with PBS and incubated with Versene for approximately 5 min before harvesting. The cells were flushed with PBS and the cell-suspension was centrifuged for 5 min at 1000 rpm. Cells were homogenized (Ultrathurrax) in a buffer containing 20 mM Na-HEPES and 10 mM EDTA (pH 7.4) and centrifuged at 20.000 rpm for 15 min. The resulting pellet was resuspended, homogenized and centrifuged (20.000 rpm, 15 min) in a buffer containing 20 mM Na-HEPES and 0.1 mM EDTA (pH 7.4, buffer 2). The resulting pellet was resuspended in buffer 2 and protein concentration was measured (BCA protein Assay, Pierce). The homogenate was kept cold during the whole procedure. The membranes were kept at −80° C. until use. Assay was performed in a 384 well Optiplate (PerkinElmer) in a total volume of 40 ul. Membranes were mixed with SPA beads.

rat calcitonin receptor [3] = biological target: T1, rat calcitonin receptor; assay: SPA competition binding, displacement of 125I-calcitonin from membranes of BHK tk'ts 13 cells transfected with rat calcitonin receptor (Assay VIII)
[4] = biological target: T3, rat amylin receptor (rat calcitonin …); assay: SPA competition binding, displacement of 125I-rat amylin from membranes of BHK tk'ts 13 cells transfected with rat calcitonin receptor + rat RAMP 3 (Assay VI)

| Binder | Ratio rCT/rAmylin binding (rat calcitonin receptor [1]) | Ratio hCT/hAmylin binding [2] | IC50 (rat calcitonin receptor [3]) | IC50 [4] |
| --- | --- | --- | --- | --- |
| {C20 diacid-γGlu}-GRCNTATCATQRLAHFLRHSSPNFGAIPSSTNVGPNTY-NH2 (disulfide 3-8; SMILES CC[C@H](C)[C@H](NC(=O)[C@H](C)NC(=O)CNC(=O)[C@H](Cc1ccccc1)NC(=O)[C@H](CC(N)=O)NC(=O)[C@@H]1CCCN1C(=O)[C@H](CO)NC(=O)[C@H](CO)NC(=O)[C@H](Cc1c[nH]cn1)NC(=O)[C@H](CCCNC(=N)N)NC(=O)[C@H](CC(C)C)NC(=O)[C@H](Cc1ccccc1)NC(=O)[C@H](Cc1c[nH]cn1)NC(=O)[C@H](C)NC(=O)[C@H](CC(C)C)NC(=O)[C@H](CCCNC(=N)N)NC(=O)[C@H](CCC(N)=O)NC(=O)[C@@H](NC(=O)[C@H](C)NC(=O)[C@@H]1CSSC[C@H](NC(=O)[C@H](CCCNC(=N)N)NC(=O)CNC(=O)CC[C@H](NC(=O)CCCCCCCCCCCCCCCCCCC(=O)O)C(=O)O)C(=O)N[C@@H](CC(N)=O)C(=O)N[C@@H]([C@@H](C)O)C(=O)N[C@@H](C)C(=O)N[C@@H]([C@@H](C)O)C(=O)N1)[C@@H](C)O)C(=O)N1CCC[C@H]1C(=O)N[C@@H](CO)C(=O)N[C@@H](CO)C(=O)N[C@H](C(=O)N[C@@H](CC(N)=O)C(=O)N[C@H](C(=O)NCC(=O)N1CCC[C@H]1C(=O)N[C@@H](CC(N)=O)C(=O)N[C@H](C(=O)N[C@@H](Cc1ccc(O)cc1)C(N)=O)[C@@H](C)O)C(C)C)[C@@H](C)O, not restated for each compound) | 97.7 | 36.2 | 65.9 nM | 0.674 nM |
| K([γGlu-γGlu-C20 diacid])CNTATCATQRLAEFLRHSSPNFGAIPSSTNVGPRTY-NH2 (disulfide 2-7; N-terminus assumed; SMILES CC[C@H](C)[C@H](NC(=O)[C@H](C)NC(=O)CNC(=O)[C@H](Cc1ccccc1)NC(=O)[C@H](CC(N)=O)NC(=O)[C@@H]1CCCN1C(=O)[C@H](CO)NC(=O)[C@H](CO)NC(=O)[C@H](Cc1c[nH]cn1)NC(=O)[C@H](CCCNC(=N)N)NC(=O)[C@H](CC(C)C)NC(=O)[C@H](Cc1ccccc1)NC(=O)[C@H](CCC(=O)O)NC(=O)[C@H](C)NC(=O)[C@H](CC(C)C)NC(=O)[C@H](CCCNC(=N)N)NC(=O)[C@H](CCC(N)=O)NC(=O)[C@@H](NC(=O)[C@H](C)NC(=O)[C@@H]1CSSC[C@H](NC(=O)[C@@H](N)CCCCNC(=O)CC[C@H](NC(=O)CC[C@H](NC(=O)CCCCCCCCCCCCCCCCCCC(=O)O)C(=O)O)C(=O)O)C(=O)N[C@@H](CC(N)=O)C(=O)N[C@@H]([C@@H](C)O)C(=O)N[C@@H](C)C(=O)N[C@@H]([C@@H](C)O)C(=O)N1)[C@@H](C)O)C(=O)N1CCC[C@H]1C(=O)N[C@@H](CO)C(=O)N[C@@H](CO)C(=O)N[C@H](C(=O)N[C@@H](CC(N)=O)C(=O)N[C@H](C(=O)NCC(=O)N1CCC[C@H]1C(=O)N[C@@H](CCCNC(=N)N)C(=O)N[C@H](C(=O)N[C@@H](Cc1ccc(O)cc1)C(N)=O)[C@@H](C)O)C(C)C)[C@@H](C)O, not restated for each compound; also called compound 110) | 113 | 53.6 | 38.3 nM | 0.339 nM |
| K([γGlu-C14 diacid])CNTATCATQRLANFLRHSSPNFGAIPSSTNVGHNTY-NH2 (disulfide 2-7; N-terminus assumed; SMILES CC[C@H](C)[C@H](NC(=O)[C@H](C)NC(=O)CNC(=O)[C@H](Cc1ccccc1)NC(=O)[C@H](CC(N)=O)NC(=O)[C@@H]1CCCN1C(=O)[C@H](CO)NC(=O)[C@H](CO)NC(=O)[C@H](Cc1c[nH]cn1)NC(=O)[C@H](CCCNC(=N)N)NC(=O)[C@H](CC(C)C)NC(=O)[C@H](Cc1ccccc1)NC(=O)[C@H](CC(N)=O)NC(=O)[C@H](C)NC(=O)[C@H](CC(C)C)NC(=O)[C@H](CCCNC(=N)N)NC(=O)[C@H](CCC(N)=O)NC(=O)[C@@H](NC(=O)[C@H](C)NC(=O)[C@@H]1CSSC[C@H](NC(=O)[C@@H](N)CCCCNC(=O)CC[C@H](NC(=O)CCCCCCCCCCCCC(=O)O)C(=O)O)C(=O)N[C@@H](CC(N)=O)C(=O)N[C@@H]([C@@H](C)O)C(=O)N[C@@H](C)C(=O)N[C@@H]([C@@H](C)O)C(=O)N1)[C@@H](C)O)C(=O)N1CCC[C@H]1C(=O)N[C@@H](CO)C(=O)N[C@@H](CO)C(=O)N[C@H](C(=O)N[C@@H](CC(N)=O)C(=O)N[C@H](C(=O)NCC(=O)N[C@@H](Cc1c[nH]cn1)C(=O)N[C@@H](CC(N)=O)C(=O)N[C@H](C(=O)N[C@@H](Cc1ccc(O)cc1)C(N)=O)[C@@H](C)O)C(C)C)[C@@H](C)O, not restated for each compound) [N^ε1-[(4S)-4-carboxy-4-(13-carboxytridecanoylamino)butanoyl]-[Arg17,Pro21,Pro27,His34]-h-amylin] | 280 | 23.5 | 707 nM | 2.52 nM |

Further binders by falling IC50 (rat calcitonin receptor [3]), results first:

| Ratio rCT/rAmylin binding (rat calcitonin receptor [1]) | Ratio hCT/hAmylin binding [2] | IC50 (rat calcitonin receptor [3]) | IC50 [4] | Binder |
| --- | --- | --- | --- | --- |
| – | – | 536 nM | 1.69 nM | K([γGlu-γGlu-C20 diacid])CNTATCATQRLA[dD]FLRHSSPNFGAIPSSTNVGSRTY-NH2 (disulfide 2-7; N-terminus assumed; SMILES CC[C@H](C)[C@H](NC(=O)[C@H](C)NC(=O)CNC(=O)[C@H](Cc1ccccc1)NC(=O)[C@H](CC(N)=O)NC(=O)[C@@H]1CCCN1C(=O)[C@H](CO)NC(=O)[C@H](CO)NC(=O)[C@H](Cc1c[nH]cn1)NC(=O)[C@H](CCCNC(=N)N)NC(=O)[C@H](CC(C)C)NC(=O)[C@H](Cc1ccccc1)NC(=O)[C@@H](CC(=O)O)NC(=O)[C@H](C)NC(=O)[C@H](CC(C)C)NC(=O)[C@H](CCCNC(=N)N)NC(=O)[C@H](CCC(N)=O)NC(=O)[C@@H](NC(=O)[C@H](C)NC(=O)[C@@H]1CSSC[C@H](NC(=O)[C@@H](N)CCCCNC(=O)CC[C@H](NC(=O)CC[C@H](NC(=O)CCCCCCCCCCCCCCCCCCC(=O)O)C(=O)O)C(=O)O)C(=O)N[C@@H](CC(N)=O)C(=O)N[C@@H]([C@@H](C)O)C(=O)N[C@@H](C)C(=O)N[C@@H]([C@@H](C)O)C(=O)N1)[C@@H](C)O)C(=O)N1CCC[C@H]1C(=O)N[C@@H](CO)C(=O)N[C@@H](CO)C(=O)N[C@H](C(=O)N[C@@H](CC(N)=O)C(=O)N[C@H](C(=O)NCC(=O)N[C@@H](CO)C(=O)N[C@@H](CCCNC(=N)N)C(=O)N[C@H](C(=O)N[C@@H](Cc1ccc(O)cc1)C(N)=O)[C@@H](C)O)C(C)C)[C@@H](C)O, not restated for each compound) |
| 129 | 26.5 | 56.3 nM | 0.436 nM | {C20 diacid-γGlu}-GRCNTATCATQRLAAFLRHSSPNFGAIPSSTNVGPNTY-NH2 (disulfide 3-8, not restated for each compound) |
